Results reported in US20250034250A1 (published 2025).
Values belong to the binder of their own block, whether it stands above or below them.

Legend:
[1] = target: T1, extracellular domain of CD33^FL with a 6-histidine-avidin tag (hsCD33-His-Avi) (human, UniProt P20138 18-256); test: Biacore SPR, purified antibody and corresponding soluble ectodomain
T1 construct: The Biacore text says only 'the corresponding soluble ectodomains'; it includes the native signal peptide and the His-Avi tag, and no limits are stated on it; also called soluble CD33^FL ectodomain; MDT000235
Source text: (§1) FIGS. 4A-4C illustrate the expression (FIGS. 4A, 4B) and characterization of two CD33^FL specific (8F5 and 5D12) and one CD33^ΔE2 specific (12B12) antibodies. Affinities for these antibodies (shown in FIG. 4C) were characterized by Biacore (Biacore, A&G Pharmaceutical, Inc., Columbia, MD) using purified antibodies and the corresponding soluble ectodomains.

[2] = target: T2, ΔE2 version of human CD33 (CD33^ΔE2) expressed on cells (human, UniProt P20138 1-364); test: flow cytometry on REH cells expressing CD33^ΔE2
T2 construct: Expressed on engineered REH sublines; also called CD33ΔE2 isoform
Source text: FIG. 6 illustrates flow cytometry binding assay characterization of CD33^ΔE2 -specific CD33 antibodies. […] Antibodies specific for CD33^ΔE2 have not previously been described reliably in the literature. The herein-described CD33^ΔE2 specific antibodies will be useful, including for determining expression profiles of this isoform across healthy and diseased individuals. REH=human CD33^neg lymphoid cells.

[3] = target: T3, human full-length CD33 (CD33^FL) expressed on cells (human, UniProt P20138 18-364); test: flow cytometry on REH cells, legend of FIG. 7
T3 construct: Expressed on engineered REH (or RS4;11) sublines

[4] = target: T1, extracellular domain of CD33^FL with a …; test: Biacore SPR, value quoted from FIG. 4C
Source text: as §1

[5] = target: T3, human full-length CD33 (CD33^FL) …; test: flow cytometry on REH cells expressing CD33^FL
[6] = target: T4, extracellular domain of CD33^ΔE2 with a 6-histidine-avidin tag (hsCD33_ΔE2-His-Avi) (human); test: Biacore SPR, purified antibody and corresponding soluble ectodomain
T4 construct: The Biacore text says only 'the corresponding soluble ectodomains'; also called soluble CD33^ΔE2 ectodomain; MDT000239
T4 chain: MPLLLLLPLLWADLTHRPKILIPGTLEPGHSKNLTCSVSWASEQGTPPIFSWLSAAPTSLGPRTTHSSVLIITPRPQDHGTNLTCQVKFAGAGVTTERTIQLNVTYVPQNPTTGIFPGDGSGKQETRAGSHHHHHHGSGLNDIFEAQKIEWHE
Source text: as §1

[7] = target: T2, ΔE2 version of human CD33 (CD33^ΔE2) …; test: flow cytometry on engineered REH cells
[8] = target: T2, ΔE2 version of human CD33 (CD33^ΔE2) …; test: flow cytometry on REH subline expressing CD33^ΔE2
[9] = target: T3, human full-length CD33 (CD33^FL) …; test: flow cytometry on REH subline expressing CD33^FL

T3 sequence (P20138 18-364 limits assumed): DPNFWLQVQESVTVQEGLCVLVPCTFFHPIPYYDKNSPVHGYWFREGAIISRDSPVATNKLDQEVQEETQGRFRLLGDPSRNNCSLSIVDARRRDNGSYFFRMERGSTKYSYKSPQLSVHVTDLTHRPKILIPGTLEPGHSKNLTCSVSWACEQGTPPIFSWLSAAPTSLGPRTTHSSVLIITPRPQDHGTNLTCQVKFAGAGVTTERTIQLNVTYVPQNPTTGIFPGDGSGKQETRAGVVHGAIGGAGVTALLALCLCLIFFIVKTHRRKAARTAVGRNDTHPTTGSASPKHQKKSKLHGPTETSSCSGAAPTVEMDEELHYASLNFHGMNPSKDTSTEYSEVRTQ

B1: anti-CD33 antibody 8F5 (antibody, mouse IgG2a, kappa, V domains shown)
VH: EVKLVESGGGLVQPGGSLKLSCAASGFTFSDFYMYWVRQTPEKRLEWVAFISNAGVTTYYPDTVEGRFTISRDNAKNTLYLQMSRLMSEDTAMYYCTKSDYDGAWFPYWGQGTLVTVSA
VL: DIVMSQSPSSLPVSVGEKVTLSCKSSQSLLYSRNQYNFLAWYQQRPGQSPKLLIYWASTRESGVPDRFTGSGSGTDFTLTISSVKAEDLAVYYCQQYYSYPYTFGGGTKLEIKR
notes: Mouse IgG2a
- Kd [1]: 8 nM

B2: anti-CD33 antibody 5E10.7 (antibody, V domains shown)
VH: QVQLQQPGAEFVKPGASVKLSCKASGYTFTSYWMQWVKQRPGQGLEWIGEIDSSDSYTNYNQKFKGMATLTVDRSSSTAYMQLSSLTSEDSAVYYCARSRPYDWFPYWGQGTLVTVST
VL: DIKMTQSPSSIYASLGERVTITCKASQDIKSYLSWYQQKPRKSPKTLIYYATTLADGVPSRFSGSGSGQDFSLTISSLESDDTATYYCLHHSESPWTFGGGTKLEIKR
notes: Mouse IgG1
- binding result [2]: binds
- binding result [3]: binds

B3: anti-CD33 antibody 5D12 (antibody, V domains shown)
VH: QVQLQQSGAEVVKPGASVKISCRASGYAFSNYWMNWVKQRPGKGLEWIGQIYPGNFNTDYNGQFKGKATLTVDKSSNTAYMQLSSLTSEDSAVYFCARFFDFGAYFTLDYWGQGTSVTVSS
VL: DIKMTQSPSSIYASLGERVTINCKASQDIKSYLSWYQQKPWKSPKTLIYYATTLADGVPSRFSGSGSGQDYSLTISSLESDDTATYYCLHHGESPWTFGEGTKLEIKR
notes: Mouse IgG2a
- Kd [4]: 0.122 nM
- Kd [1]: 0.112 nM

B4: anti-CD33 antibody 1H7 (antibody, V domains shown)
VH: QVQLQQSGAELVKPGASVKISCKASGYAFSNYWMNWVKQRPGKGLEWIGQINPGDGDTNYNGKFKGKATLTADKSSSTAYMQLSSLTSEDSAVYFCAREDRDYFDYWGQGTTLTVSS
VL: DIQMTQTTSSLSASLGDRVTISCRASQDINYYLNWYQQKPDGTVKLLIYYSSRLHSGVPSRFSGSGSGTDFSLTISNLEQEDIATYFCQQDDALPYTFGGGTKLEIKR
notes: Raised in mice; The entries include a secretion leader; also called CD33PAN antibody
- binding result [2]: binds
- binding result [5]: binds

B7: anti-CD33 antibody 12B12 (antibody, V domains shown)
VH: EVQLQQSGTVLARPGASVKMSCKASGYTFTTYWMHWIKQSPGQGLEWIGAIYPGNSDTSYNQKFKGKAKLTAVTSASTAYMELSSLTNEDSAVYYCEIYDGYHFIYWGQGTTLTVSS
VL: DIVMTQAAFSNPVTLGTSASISCRSSQSLLHSNGITYLYWYLQKPGQSPQLLIYQMSNLASGVPDRFSSSGSGTDFTLRISRVEAEDVGVYYCAQNLELPPTFGGGTKLEIKR
notes: Mouse IgG2b
- Kd [6]: 8 nM

The remaining lines, values ahead:

- binding result [2]: binds
B5: anti-CD33 antibody 11D11 (antibody, V domains shown)
VH: EVNLVESGGGLVQSGRSLRLSCATSGFTFSDFYMEWVRQAPGKGLEWIAASRNKANDYTTEYKASVKGRFIVSRDTSQSILYLQMNALRAEDTAIYYCTRDTGPMDYWGQGTSVTVSS
VL: DIQMTQTTSSLSASLGDRVTISCRASQDISNYLNWYQQKPDGTVKLLIYYTSRLHSGVPSRFSGSGSGTDYSLTISNLEQEDIATYFCQQGSTLPPTFGGGTKLEIKR
notes: Mouse IgG1

- binding result [2]: binds
- binding result [5]: no binding
B6: anti-CD33 antibody 7E7 (antibody, V domains shown)
VH: QVTLKESGPGILQPSQTLSLTCSFSGFSLNSYGMGIGWIRQPSGKGLEWLAHIWWDDNKYYKPDLKSRLTVSKDTSKNQVFLKIANVDTTDTATYFCARDGGYSLFAYWGQGTLVTVSV
VL: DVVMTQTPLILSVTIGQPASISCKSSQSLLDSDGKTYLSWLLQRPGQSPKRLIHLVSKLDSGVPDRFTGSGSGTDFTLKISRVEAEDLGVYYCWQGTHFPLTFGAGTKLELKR
notes: Mouse IgG1

- binding result [7]: binds
B8: anti-CD33 antibody 11D5 (antibody, V domains shown)
VH: EVQFQQSETVLARPGTSVKLSCKASGYTFTSYWMHWLKQRPGQGLEWIGAIYCGNSDTSYNQKFKGKAKLTAVTSATTAYMELSSLTNEDSAVYYCKIYDGYHFDYWGQGTTLTVSS
VL: DIVMTQAAFSNPVTLGTSASISCRSNKSLLHSNGITYLYWYLQKPGQSPQLLIYQMSNLASGVPDRFSSSGSGTDFTLRISRVEAEDVGVYYCAQNLELPPTFGGGTKLEIKR
notes: Mouse IgG1

- binding result [8]: binds
- binding result [9]: binds
B9: anti-CD33 antibody 2D5 (antibody, V domains shown)
VH: QVQLQQSGAELVRPGASVTLSCKASGYTFTDYDMHWVKQTPVHGLEWIGAIDPETGGTAYNQNFKGKAILTVDKSSRIAYMELRSLTSEDSAVFYCTSDYDYFGVWGTGTTVTVSS
VL: DIVMTQSQKFMSTSVGDRVSVTCKASQNVGTNVVWYHKKPGQSPKGLIYSASDRYSGVPDRFTGSGSGTDFTLTINNVQSEDLAEYFCQQYNIYPYTFGGGTKLEIKR
notes: the antibody was raised in mice
